According to PMC12269619, “In silico improvement of affinity for highly protective anti-malarial antibodies” (iScience, 2025):
Ends that are not written are not given here.

Molecular target: T1, Biotinylated junctional peptide Pep21 (PfCSP peptide 21) (Plasmodium falciparum 3D7, UniProt Q7K740, also: biotinylated, position not given here)
T1 construct: Plasmodium falciparum circumsporozoite protein (PfCSP), junctional region, residues 101-115; source: synthetic peptide, bought: Genscript
T1 chain: NPDPNANPNVDPNAN
Assay: BLI; Octet Red384, biotinylated Pep21 on streptavidin biosensors, Fab serially diluted from 1000 to 62.5 nM, 30°C, PBS + 1% BSA, association 60 s, dissociation 180 s, global fit 1:1 Langmuir
Details: both partners purified

B1: P3-43 Fab (m43.151 P100K_H) (Fab, V domains shown)
VH: QVHLVQSGAEVKKPGASVKVSCKASGYTFTSYAIHWVRQAPGQRLEWMGWIKGGNGNTRYSQKFQDRVTITRDTSASTAYMELSSLRSEDTAVYYCALLTVITKDDAFDIWGQGTMVTVSS
VL: not shown
notes: as the heavy chain of m5 (PDB 7LKG) with the stated change; own structure deposited here; as the light chain of m5; source: Fab produced from the antibody
How did the Kd turn out when B1 was run?
The Kd was 8.9 nM.
